Laboratory results: patent publication CN106754740A

Target: 纯化的重组蛋白MDR-1 (原核表达, PET28a-MDR-1, 大肠杆菌BL21) (human) (UniProt P08183)
Assay: direct ELISA, purified antibody diluted 1:200 to 1:12800 on plate coated with purified MDR-1 protein (10 μg/ml), goat anti-mouse IgG-HRP, OD450

Chain of UniProt P08183 (P08183 whole entry): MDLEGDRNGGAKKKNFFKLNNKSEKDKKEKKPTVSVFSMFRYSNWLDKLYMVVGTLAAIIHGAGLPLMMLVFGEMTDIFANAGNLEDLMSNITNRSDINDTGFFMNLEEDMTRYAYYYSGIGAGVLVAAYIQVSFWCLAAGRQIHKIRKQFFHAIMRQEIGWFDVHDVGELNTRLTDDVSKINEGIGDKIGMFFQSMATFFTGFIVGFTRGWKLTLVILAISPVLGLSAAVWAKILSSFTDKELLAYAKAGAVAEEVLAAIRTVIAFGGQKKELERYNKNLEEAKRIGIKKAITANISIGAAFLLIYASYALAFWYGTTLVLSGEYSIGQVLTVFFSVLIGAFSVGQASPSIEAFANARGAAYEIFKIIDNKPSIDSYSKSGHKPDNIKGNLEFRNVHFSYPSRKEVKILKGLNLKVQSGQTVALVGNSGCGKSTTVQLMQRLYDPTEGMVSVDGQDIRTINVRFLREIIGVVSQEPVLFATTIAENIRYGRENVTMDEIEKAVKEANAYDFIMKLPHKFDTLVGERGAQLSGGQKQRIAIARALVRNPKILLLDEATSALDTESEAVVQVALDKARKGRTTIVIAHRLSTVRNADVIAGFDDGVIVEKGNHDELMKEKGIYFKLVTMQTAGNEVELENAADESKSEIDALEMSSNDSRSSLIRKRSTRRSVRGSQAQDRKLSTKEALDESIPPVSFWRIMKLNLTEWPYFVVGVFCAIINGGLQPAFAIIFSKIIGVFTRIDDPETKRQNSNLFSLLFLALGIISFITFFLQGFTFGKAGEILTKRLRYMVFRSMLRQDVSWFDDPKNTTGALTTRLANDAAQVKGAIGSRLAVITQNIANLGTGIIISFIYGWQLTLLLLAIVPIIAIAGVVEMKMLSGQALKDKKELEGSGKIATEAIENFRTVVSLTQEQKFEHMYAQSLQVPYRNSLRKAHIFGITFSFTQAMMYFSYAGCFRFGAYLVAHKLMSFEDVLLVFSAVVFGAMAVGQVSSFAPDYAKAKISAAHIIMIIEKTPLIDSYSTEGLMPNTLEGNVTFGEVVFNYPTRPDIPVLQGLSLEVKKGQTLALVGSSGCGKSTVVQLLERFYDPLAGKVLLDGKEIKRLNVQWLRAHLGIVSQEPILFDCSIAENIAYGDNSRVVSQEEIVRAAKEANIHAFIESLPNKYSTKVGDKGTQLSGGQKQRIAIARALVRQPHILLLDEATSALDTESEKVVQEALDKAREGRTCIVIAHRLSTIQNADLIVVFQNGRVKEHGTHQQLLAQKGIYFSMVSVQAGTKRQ

ELISA滴度 (dilution (1:x)): > 10000
B1: 小鼠抗人MDR-1单克隆抗体 (杂交瘤细胞株6C6, CGMCC No. 6917 产生) (antibody, part only; not given: light chain variable region, constant regions, V domains shown, part only)
VH: LGISTMNFGLSWVFLVLVLKGVQCEVKLVESGGGLVKPGGSLKLSCAASGFTFSNYAMSWVRQTPEKRLEWVASISSGGGGSTYYPDSVKGRFTISRDNARNILYLLMSSLRSEDTAMYYVCVMSLSEQSSCINLP
